Results published in patent publication US20120308554A1, “VEGF-D/VEGFR2/3-MEDIATED REGULATION OF DENDRITES” (UNIVERSITAT HEIDELBERG, priority 2011, published 2012).

B1: rVEGFD: recombinant mouse VEGFD (R&D Systems) (protein)
chain: FAATFYDTETLKVIDEEWQRTQCSPRETCVEVASELGKTTNTFFKPPCVNVFRCGGCCNEEGVMCMNTSTSYISKQLFEISVPLTSVPELVPVKIANHTGCKCLPTGPRHPYSIIRR
B2: CaMKIVK75E: dominant negative mutant of CaMKIV (protein, UniProt P08414 1-469, looked up, variant K75E)
Calcium/calmodulin-dependent …: MLKVTVPSCPSSPCSSVTASTENLVPDYWIDGSNRDPLGDFFEVESELGRGATSIVYRCKQKGTQKPYALKVLKETVDKKIVRTEIGVLLRLSHPNIIKLKEIFETPTEISLVLELVTGGELFDRIVEKGYYSERDARDAVKQILEAVAYLHENGIVHRDLKPENLLYATPAPDAPLKIADFGLSKIVEHQVLMKTVCGTPGYCAPEILRGCAYGPEVDMWSVGIITYILLCGFEPFYDERGDQFMFRRILNCEYYFISPWWDEVSLNAKDLVKKLIVLDPKKRLTTFQALQHPWVTGKAANFVHMDTAQKKLQEFNARRKLKAAVKAVVASSRLGSASSSHTSIQENHKASSDPPSTQDAKDSTDLLGKKMQEEDQEEDQVEAEASADEMRKLQSEEVEKDAGVKEEETSSMVPQDPEDELETDDPEMKRDSEEKLKSVEEEMDPMTEEEAPDAGLGVPQQDAIQPEY

Columns and labels:
Type in all cases: cell-based, mice
hippocampal neurons = assay: Morphometric analyses (total dendritic length, Sholl analysis, spine density) of cultured hippocampal neurons
Experimental: Hippocampal neurons from newborn C57BL/6 mice were cultured as known in the art. Experiments were done after a culturing period of 10 to 14 days in vitro (DIV). DNA transfection was done on DIV8 using Lipofectamine 2000 (Invitrogen, San Diego, Calif.). For the studies on dendrite morphology, neurons were analyzed 4-5 days after transfection.
For 3D Sholl Analysis, total dendritic length and spine morphology were calculated using Object-Image freeware software with a specific set of macros (written by Dr. E. Ruthazer, McGill University, Quebec). Briefly, a z-Stack acquisition was imported, calibrated in Object-Image and manually traced. Total dendritic length was then computed. For Sholl analysis, the shell interval was set at 5 μm. All analyses were performed blind. In all in vitro experiments, for each condition, a minimum of 12 neurons from three independent preparations was analyzed. For the Golgi staining quantifications of 20 neurons for each condition from 4 different injected animals per viral construct were traced and analyzed.
Hippocampal neurons were fixed with 4% paraformaldehyde at room temperature for 20 min. For immunostaining, primary and secondary antibodies were applied in GDB buffer (30 mM phosphate buffer [pH7.4] containing 0.2% gelatin, 0.5% Triton X-100, and 0.9 M NaCl). For the morphometric analyses, fluorescence images were acquired using a confocal laser-scanning microscope TCS SP2 (Leica, Mannheim, Germany) equipped with an inverted fluorescence microscope DM IRE2 (Leica) and Leica confocal scan software. All images were obtained with sequential acquisition setting at a resolution of 1024×1024 pixels. Each image was a z series projection of images taken at 1 μm intervals.

hippocampal cultures = assay: MEA recordings of spontaneous network activity; conditions: rAAV-shVEGFD infected cultures, 100 ng/ml rVEGFD added to media
Experimental: MEA recordings were done as known in the art. From DIV7 to DIV13, recordings of spontaneous network activity were acquired for 5 min once per day.

p38 MAP kinase = assay: Immunoblot analysis with phospho-specific antibodies, p38 MAP kinase; conditions: rVEGFD treatment for various lengths of time
Experimental: (§1) A: Immunoblot analysis using phosphor-specific antibodies of hippocampal neurons with or without rVEGFD treatment for the indicated times. Tubulin was used as loading control.
(§2) B: Quantification of the experiment shown in A. rVEGFD treatment causes a significant increase of CREB, ERK1/2 and p38 MAP kinase phosphorylation. All values are expressed as percentage of untreated controls (n=5).
(§3) Next, the signaling mechanisms through which VEGFD controls dendrite architecture were determined. Cell lysates from hippocampal neurons treated with rVEGFD for various lengths of time were subjected to immunoblot analysis using a large panel of antibodies that are specific for the phosphorylated (i.e. activated) forms of signaling molecules (FIG. 9). […] Therefore, it was determined whether p38 MAPK mediates the effects of VEGFD on dendrite geometry. […] Because SB203580 inhibits the alpha and beta isoforms of p38 MAPK, the role of p38 MAPK in VEGFD-mediated dendritic arborization by RNAi was further investigated. Two pAAVs, shp38α and shp38β, that contain expression cassettes for shRNAs specific for the alpha and the beta isoform, respectively, of p38 MAPK, were generated.

ERK1/2 = assay: Immunoblot analysis with phospho-specific antibodies, ERK1/2; conditions: rVEGFD treatment for various lengths of time
Experimental: as §1, §2, §3

CREB = assay: Immunoblot analysis with phospho-specific antibodies, CREB; conditions: rVEGFD treatment for various lengths of time
Experimental: as §1, §2, §3

VEGFD = assay: qRT-PCR analysis of VEGFD expression in hippocampal neurons; conditions: hippocampal neurons infected with rAAV
Experimental: Total RNA was isolated at DIV10 to DIV13 from hippocampal primary neuron cultures or isolated brain tissues with Rneasy Mini Kit (Qiagen, Hilden, Germany) including an optional Dnase I treatment at room temperature for 15 min according to manufacturer's instructions (Qiagen). 1.2 μg of extracted RNA was reverse transcribed into first strand cDNA using High Capacity cDNA Reverse Transcription kit (Applied Biosystems, Foster City, Calif.).
Quantitative reverse transcriptase PCR (qRT-PCR) was done on an ABI7300 thermal cycler using Universal qRT-PCR master mix with TaqMan Gene Expression Assays for the indicated genes (Applied Biosystems). The following TaqMan Gene Expression Assays were used in this study: Gusb (Mm00446953_m1), cFos (Mm00487425_m1), VEGFD (Mm00438965_m1), VEGFC (Mm01202432_m1), VEGF (Mm01281449_m1), VEGFR3 (Mm01292618_m1), beta-actin (Mm00607939_s1), beta-2 microglobulin (Mm00437762_m1), CBP (Mm01342435_m1), p38 MAPK alpha (Mm00442497_m1), p38 MAPK beta (Mm00440955_m1). Expression of target genes was normalized against the expression of Gusb as endogenous control gene. Data were derived from at least 5 independent experiments.

Molecule	dendrite length or complexity (hippocampal neurons; neurons transfected with pAAV-shSCR and pAAV-emptymC, rVEGFD 100 ng/ml 3 days)	neuronal morphology (hippocampal neurons; neurons without nuclear calcium signaling blockade)	effect on reduction of dendrite length and complexity caused by shVEGFD (hippocampal neurons; pAAV-shVEGFD transfected neurons, rVEGFD 100 ng/ml 3 days or co-transfection)	restoration of spine density in CaMBP4 or CaMKIVK75E expressing neurons (hippocampal neurons; rVEGFD 100 ng/ml 3 days or VEGFD-HA expression)	rescue of reduction in dendrite length and complexity caused by CaMBP4 or CaMKIVK75E (hippocampal neurons; recombinant factors 100 ng/ml for 3 days, or VEGFD-HA expression)	rescue of decreased spike frequency (hippocampal cultures)	activation of p38 MAPK (p38 MAP kinase)	ERK1/2 phosphorylation (ERK1/2)	CREB phosphorylation (CREB)	VEGFD mRNA levels (VEGFD)
B1	did not affect dendrite length or complexity	no detectable effect on neuronal morphology	reversed	failed to restore normal spine density	rescued the reduction in dendrite length and complexity	partly rescued	very robust	significant but moderate	significant but moderate	–
B2	–	–	–	–	–	–	–	–	–	significantly lower
